Data reported in article PMC7526519.

Columns and labels:
Assay in all cases: SPR
[1] = biological target: alpaca ACE2 ectodomain fused with mouse Fc (alpaca)
[2] = biological target: little brown bat ACE2 ectodomain fused with mouse Fc (little brown bat)
[3] = biological target: Malayan pangolin ACE2 ectodomain fused with mouse Fc (Malayan pangolin)

Substance	Kd [1]	fold lower affinity than SARS-CoV-2 RBD to the same ACE2 [2]	fold lower affinity than SARS-CoV-2 RBD to the same ACE2 [3]
SARS-CoV-2 receptor binding domain (RBD), His-tagged (from UniProt P0DTC2 319-541) (domain or fragment)	16.5 µM	–	–
SARS-CoV receptor binding domain (RBD), His-tagged (from UniProt P59594 306-527) (domain or fragment)	–	40 fold	4 fold
